PMC4105751 (RNA, 2014)

Experiments:
[1] = target: the molecule itself; test: crystal structure
[2] = target: the molecule itself; test: crystal structure; remark: listed apart in the source
[3] = target: the molecule itself; test: SAXS with inline size-exclusion chromatography

B1: N-terminal SPOUT domain of TrmJ of Escherichia coli (EcTrmJ1-164) (domain or fragment, E. coli, UniProt P0AE01 1-164, looked up)
chain: MLQNIRIVLVETSHTGNMGSVARAMKTMGLTNLWLVNPLVKPDSQAIALAAGASDVIGNAHIVDTLDEALAGCSLVVGTSARSRTLPWPMLDPRECGLKSVAEAANTPVALVFGRERVGLTNEELQKCHYHVAIAANPEYSSLNLAMAVQVIAYEVRMAWLATQ
**Q.** How did the “stoichiometry N” value [1] turn out when B1 was run?
**A.** 2

B2: N-terminal SPOUT domain of TrmJ of Sulfolobus acidocaldarius (SaTrmJ1-157) (domain or fragment, UniProt Q4JB16 1-157, looked up)
chain: MTIRLVIVEPEGAYNLGFIARLVKNFLIDEFYVVNPKADINEAIKFSAKGSEVIEKMMKITNNFDDAIRDVDLKIATSSIADIKGDLLRKSIRPIDLERLIKDKKVAFIFGRESVGLTREEIAKSDFLLFIPANPEYPVLNLSHAVGIVLYELWRNR
**Q.** Which “stoichiometry N” value [2] does the source give for B2 here?
**A.** 2

B3: C-terminal domain of TrmJ of Escherichia coli (EcTrmJ167-246) (domain or fragment, E. coli, UniProt P0AE01 167-246, looked up)
chain: GEQVEHEETPYPLVDDLERFYGHLEQTLLATGFIRENHPGQVMNKLRRLFTRARPESQELNILRGILASIEQQNKGNKAE
**Q.** With B3 as the protein, how does the “stoichiometry N” value [3] read?
**A.** 2
